Source: the supplement of paper PMC9732359
± gives the uncertainty stated by the source.

Test: protein stability index of a GFP-peptide fusion (yeast GPS) (PSI 1-4); higher = more stable; sorted into four equal gates, so the index is relative within each strain
Details: doa10∆
Procedure, shortened: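 The protein stability index of a peptide was calculated by multiplying its read frequency in each gate by that gate's number and adding the products. The peptides were tiled 17-residue stretches of yeast proteins, fused downstream of GFP on a Cherry-expressing plasmid and carried in yeast as a pooled library. Mid-log cultures in leucine-free medium were sorted into four equal gates by GFP/Cherry ratio, and each gate's plasmids were PCR-amplified and Illumina-sequenced.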
For RAVFLFRCKETHSYNFM [RPC82], the protein stability index was 2.19 ± 0.058. With RAVGGEVGASAALAPKI [RPL12A] the protein stability index was 3.37 ± 0.14. Sequence RAYLSHSNRCIVFSKKE [CSN12] has a protein stability index of 1.41 ± 0.075. RCLVAVIQQDKYQKALH [SRP72] showed a protein stability index of 2.46 ± 0.2. Work on RDDLFVRNLQGIQEVVH [NUT1] yielded a protein stability index of 2.9 ± 0.09. RDLILKKGEYARFKSKD [SMC3] showed a protein stability index of 2.81 ± 0.17. REDLNKAEYVDQYDAER [RPO31] showed a protein stability index of 3.15 ± 0.1. With REFLKVDQEMLYEIILA [SKP1] the protein stability index was 2.81 ± 0.066. For REHERVILKQILQILDQ [SWP82], the protein stability index was 2.83 ± 0.077. In the case of REHFEKTVAVDSVFEQN [RPL3], the protein stability index is reported as 2.94 ± 0.12. Sequence REIVMPAHTKYMLIEEA [ITC1] has a protein stability index of 3.2 ± 0.1. Work on RELYKYVRKHDPLNSNI [PRP28] yielded a protein stability index of 2.96 ± 0.083. Work on REQASKSKKSWLNRLNN [YMR153W/NUP53] yielded a protein stability index of 2.31 ± 0.11. In the case of REVGTKFTTVLAKILAR [ECM29], the protein stability index is reported as 1.39 ± 0.086. Work on RFAPDNQVTDSSQLNKL [SIR3] yielded a protein stability index of 2.9 ± 0.096. In the case of RFNFISKYFIIDSFFLY [YMR129W/POM152], the protein stability index is reported as 1.58 ± 0.061. In the case of RGFNNQIMQLKKICNHP [SNF2], the protein stability index is reported as 3.13 ± 0.066. Sequence RGKDCTVVISQKKVPDK [SCL1] has a protein stability index of 2.59 ± 0.086. RGRNDTLERVHLSYCSN [GRR1] showed a protein stability index of 3.01 ± 0.055. For RHQQLLRSRLQQQQQQQ [SNF5], the protein stability index was 2.47 ± 0.078. Sequence RIFISNVSENQPWQMDT [SNF12] has a protein stability index of 2.98 ± 0.052. With RIGRIEDVTPVPSDSTR [RPS14A] the protein stability index was 2.85 ± 0.082. RIIREMFAYAKEHEPCI [RPT4] showed a protein stability index of 2.43 ± 0.1. Work on RIKNEQSALSQIIRLFY [ISW2] yielded a protein stability index of 3.08 ± 0.1. Sequence RIQKIISKRKEELEEEF [YIL149C/MLP2] has a protein stability index of 3.13 ± 0.12. With RKDLRDKLICSIDPPGC [DIS3] the protein stability index was 2.96 ± 0.066. RKEGPTIYYVDSDGTRL [PRE2] gave a protein stability index of 2.24 ± 0.048. In the case of RKHPGGRGMAGGQHHHR [RPL28], the protein stability index is reported as 2.94 ± 0.14. With RKHTRGDVSSGLFEKST [BRN1] the protein stability index was 2.81 ± 0.16. RKIEAETRNGKVKNQGA [YCS4] gave a protein stability index of 2.89 ± 0.14. RKIEFPSLRDRRERRLI [RPT3] showed a protein stability index of 3.31 ± 0.052. RKIGISIDDHPYNLNLF [RPC31] showed a protein stability index of 1.75 ± 0.043. RKILNFKKDLVIVLSNI [SWI1] showed a protein stability index of 2.52 ± 0.1. With RKIVFRCSECIKILGSE [RPN4] the protein stability index was 1.22 ± 0.14. Sequence RKKTEAVARLKSMNKSA [SNF2] has a protein stability index of 1.68 ± 0.074. RKNYMHVKNFGFANSLT [YML031W/NDC1] showed a protein stability index of 1.18 ± 0.11. With RKSDQQDVLKGSSASSR [POP1] the protein stability index was 3.29 ± 0.12. In the case of RKSVFAPLNFNPIIENN [SSN2], the protein stability index is reported as 2.65 ± 0.058. For RKVVKPSSLNSDKIPYV [SRB4], the protein stability index was 2.74 ± 0.23. RLAAPHHWLLDKLSGCY [RPS4A] gave a protein stability index of 2.31 ± 0.23. In the case of RLFNNVKIHSQESLLSR [SRP72], the protein stability index is reported as 2.61 ± 0.076. With RLLPINVNKKALGQDTE [MED11] the protein stability index was 2.84 ± 0.061. Sequence RLNFNQNSSKIVNVLSK [SWI3] has a protein stability index of 2.56 ± 0.057. RLPTFLKHKSICSCVNR [RPP1] gave a protein stability index of 1.84 ± 0.086. RLRALQLYFQKNGAQDL [RRI2] gave a protein stability index of 1.7 ± 0.06. Work on RLTVSARDAPTKISTLA [QCR2] yielded a protein stability index of 3.2 ± 0.096. With RLVIKEALVERRRAFKR [RPB4] the protein stability index was 3.13 ± 0.29. RLWHTLKYYQDLKNTRM [SNF5] showed a protein stability index of 1.77 ± 0.057. Work on RMMGCVKKQKSARGIET [FAS2] yielded a protein stability index of 1.59 ± 0.09. With RMRLRALETENMEIRNL [GRR1] the protein stability index was 3.09 ± 0.069. With RMSIKLLRLASKSTSMK [POP1] the protein stability index was 2.49 ± 0.043. Work on RMTIRTRGRSATIRETY [RRP43] yielded a protein stability index of 2.96 ± 0.057. RNNHNSNTSTSKMLDAA [SNF12] showed a protein stability index of 3.01 ± 0.058. RNNSNNKTSNNNNVTAV [SWI1] gave a protein stability index of 2.73 ± 0.05. RNPARLMETLRTLRRKG [RPB2] gave a protein stability index of 2.28 ± 0.077. For RNSFIRDMIMKRNSDKV [ITC1], the protein stability index was 2.84 ± 0.16. For RNSLETKLTTCKRELAF [YIL149C/MLP2], the protein stability index was 2.09 ± 0.068. In the case of RNVVEDINQAKDFIENV [BRN1], the protein stability index is reported as 3.25 ± 0.13. RPTGGANMATVPSTTNV [MED6] gave a protein stability index of 2.66 ± 0.062. In the case of RQCFREKANDIGFNKFR [RPS29A], the protein stability index is reported as 3.32 ± 0.15. For RQELQMQRQQQGISGSQ [SNF2], the protein stability index was 2.65 ± 0.049. For RQFLHELRRPGVDNLRR [RPO31], the protein stability index was 1.27 ± 0.078. For RQLSPHTLMSFAGEAGD [PRE1], the protein stability index was 1.69 ± 0.052. Work on RQQQQRSILQSLNPALQ [SWI1] yielded a protein stability index of 1.76 ± 0.051. RRANFYKENEAMLRENI [SNF12] showed a protein stability index of 3.29 ± 0.094. RREVQIQLQEFLLSAMT [NSL1] showed a protein stability index of 1.42 ± 0.052. For RRLHKVLRPFLLRRLKK [SNF2], the protein stability index was 2.09 ± 0.078. Work on RRLLNLYNDNNKNNNNR [SWI1] yielded a protein stability index of 3.11 ± 0.12. With RRNRYKTYYGIHCLAVR [RPN7] the protein stability index was 1.23 ± 0.05. In the case of RRVKQLDDITDSNTTEI [SIR4], the protein stability index is reported as 3.27 ± 0.086. RSGALIKFKKCDGDTVW [SSN2] gave a protein stability index of 2.85 ± 0.053. Work on RSLCEVLVYDDKLEKVT [RPC34] yielded a protein stability index of 2.32 ± 0.09. Work on RSLGLQQVVCIFSYGPH [POP6] yielded a protein stability index of 1.51 ± 0.028. For RSMIEHARTAAVTHNLY [PUP2], the protein stability index was 2.16 ± 0.13. With RSNQYQRGKMHGLKQLR [NUT2] the protein stability index was 2.67 ± 0.1. For RSNTGALMRCSFEETVE [RPO21], the protein stability index was 3 ± 0.074. RSPLVTPMDESSYDLLF [SRP72] gave a protein stability index of 2.71 ± 0.13. RSQISEKDAKINKLMEK [SIR4] showed a protein stability index of 3.13 ± 0.087. RSRISSPHGLINLNVDD [SRB4] showed a protein stability index of 2.47 ± 0.052. In the case of RSSEEINSDNQNIILRS [RPN3], the protein stability index is reported as 3.03 ± 0.26. In the case of RSTMMKFLKIASLKHDN [RPN3], the protein stability index is reported as 2.18 ± 0.067. RSTRIRTKSQVIEEDYD [IRR1] showed a protein stability index of 2.89 ± 0.15. Work on RTPYLTSLKKIKDEIDD [SWI1] yielded a protein stability index of 2.86 ± 0.16. Work on RTQPWSIMPDLYFYRNP [RPS0B] yielded a protein stability index of 2.55 ± 0.051. RVEPETFEIPQAHEIVI [SWI3] showed a protein stability index of 2.53 ± 0.073. In the case of RVGGGGTGRSGQGAFGN [RPL4A], the protein stability index is reported as 3.54 ± 0.13. Work on RVNKNAPAVELHGNAKK [FAS2] yielded a protein stability index of 2.74 ± 0.071. Sequence RVVYLKHLEDNTLLISG [RPL6A] has a protein stability index of 2.63 ± 0.11. In the case of RWKRFTIGAIFLNHAFD [CDC53], the protein stability index is reported as 2.54 ± 0.065. RYANKRFRKAQCPIIER [RPS5] showed a protein stability index of 2.34 ± 0.16. For RYDSNSGGEREIQRTML [RPT2], the protein stability index was 3.43 ± 0.12. In the case of RYDYSDEVGRRSMLTVV [YCG1], the protein stability index is reported as 2.02 ± 0.067. In the case of RYNVEKVKRLMDFLEED [NSL1], the protein stability index is reported as 2.08 ± 0.098. Sequence RYQHLEKITQISLLCKN [PCI8] has a protein stability index of 1.23 ± 0.066. Work on RYRVDLLNTDHTLDPSL [RPO21] yielded a protein stability index of 3.09 ± 0.072. Sequence SAAATPSLNKTINGKVN [GAL11] has a protein stability index of 2.9 ± 0.06. For SAAKYKDMKLLRYYKNI [NUT1], the protein stability index was 1.83 ± 0.059. In the case of SADAPNPNNVNVQTQYR [RET1], the protein stability index is reported as 2.92 ± 0.09. SADPSLLIDQFSPVISQ [SWI1] showed a protein stability index of 2.85 ± 0.12.

Same assay, conditions: pdr5∆
In the case of RAVFLFRCKETHSYNFM [RPC82], the protein stability index is reported as 2.02 ± 0.084. RAVGGEVGASAALAPKI [RPL12A] gave a protein stability index of 3.21 ± 0.17.
